Test results as given in patent publication US20110086806A1 (published 2011).

T1: recombinant human IL-23R/Fc chimera (R&D Systems) (human, UniProt Q5VWK5 24-355)
T1 construct: Bought; also called rhIL23RFc
T1 sequence (looked up): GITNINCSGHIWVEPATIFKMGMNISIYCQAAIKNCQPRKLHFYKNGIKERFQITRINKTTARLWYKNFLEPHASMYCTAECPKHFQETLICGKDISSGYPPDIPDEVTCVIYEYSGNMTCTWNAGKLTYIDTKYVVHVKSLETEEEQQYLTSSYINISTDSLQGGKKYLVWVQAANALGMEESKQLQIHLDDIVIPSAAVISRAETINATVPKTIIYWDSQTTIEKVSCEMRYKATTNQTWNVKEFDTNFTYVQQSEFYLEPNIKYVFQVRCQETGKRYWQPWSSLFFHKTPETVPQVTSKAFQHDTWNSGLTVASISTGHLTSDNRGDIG


Each binder was assayed against T1, recombinant human IL-23R/Fc chimera … (assay: competition ELISA vs IL-23).
Experimental: Assays were performed generally as follows. Individual wells in Immulon HB2 plates were incubated overnight at 4° C. with 100 μL PBS containing 100 ng of an anti-human IgG Fc (R&D MAB 110 clone 97924). Plates were washed five times with PBS/0.05% Tween 20, and wells were incubated for 1.5 h at RT with 100 μL each of PBS containing 50 ng of recombinant human IL-23R/Fc. […] Competitor was included at a final concentration of 1 μg/mL. After incubation, plates were washed as described and wells were incubated for 40 min at RT with 100 μL each of PBS containing a 1:5000 dilution of streptavidin-HRP conjugate (Pierce catalog no. 21130). After washing, wells were incubated with 100 μL each of TMB (BioFX Lab catalog no. TMBH-1000-0) for up to 30 min at RT. Reactions were stopped with an equal volume of 0.2 M sulfuric acid.

| Binder | Ratio IC50 to 056-53.H4E IC50 |
| --- | --- |
| 105-08-1B1 ATRIMER complex (designed binder, ATRIMER complex: homotrimer of three copies of this chain, joined by the tetranectin coiled coil, not shown: C-terminal tag: Myc/His (pANA4) or HA-StrepII (pANA10)) EPPTQKPKKIVNAKKDVVNTKMFEELKSRLDTLAQEVALLKEQQALQTVCLKGTKVHMKCFLAFTQTKTFHEASEDCISRGGTLSTPQTGSENDALYEYLRQSVGNEAEIWLGLNGSPRTQTWVDMTGARIAYKNWETEITAQPDGGFGYFGENCAVLSGAANGKWFDKRCRDQLPYICQFGIV | 3.3 |
| 105-08-1C11 ATRIMER complex (designed binder, ATRIMER complex: homotrimer of three copies of this chain, joined by the tetranectin coiled coil, not shown: C-terminal tag: Myc/His (pANA4) or HA-StrepII (pANA10)) EPPTQKPKKIVNAKKDVVNTKMFEELKSRLDTLAQEVALLKEQQALQTVCLKGTKVHMKCFLAFTQTKTFHEASEDCISRGGTLSTPQTGSENDALYEYLRQSVGNEAEIWLGLNGSSRTDTWVDMTGARIAYKNWETEITAQPDGGFGYFGENCAVLSGAANGKWFDKRCRDQLPYICQFGIV | 2.8 |
| 105-08-1D2 ATRIMER complex (designed binder, not shown: C-terminal tag: His/Myc (pANA4) or HA-StrepII (pANA10)) EPPTQKPKKIVNAKKDVVNTKMFEELKSRLDTLAQEVALLKEQQALQTVCLKGTKVHMKCFLAFTQTKTFHEASEDCISRGGTLSTPQTGSENDALYEYLRQSVGNEAEIWLGLNGSPVTDTWVDMTGARIAYKNWETEITAQPDGGFGYFGENCAVLSGAANGKWFDKRCRDQLPYICQFGIV | 4.3 |
| 105-08-1B10 ATRIMER complex (designed binder, not shown: C-terminal tag: His/Myc (pANA4) or HA-StrepII (pANA10)) EPPTQKPKKIVNAKKDVVNTKMFEELKSRLDTLAQEVALLKEQQALQTVCLKGTKVHMKCFLAFTQTKTFHEASEDCISRGGTLSTPQTGSENDALYEYLRQSVGNEAEIWLGLNGSRHTDTWVDMTGARIAYKNWETEITAQPDGGFGYFGENCAVLSGAANGKWFDKRCRDQLPYICQFGIV | 4.7 |
| 105-08-1C4 ATRIMER complex (designed binder, not shown: small tags and cut ends) EPPTQKPKKIVNAKKDVVNTKMFEELKSRLDTLAQEVALLKEQQALQTVCLKGTKVHMKCFLAFTQTKTFHEASEDCISRGGTLSTPQTGSENDALYEYLRQSVGNEAEIWLGLNGSTLTDTWVDMTGARIAYKNWETEITAQPDGGWGYFGENCAVLSGAANGKWFDKRCRDQLPYICQFGIV | 3.3 |
| 105-08-1C6 ATRIMER complex (designed binder) EPPTQKPKKIVNAKKDVVNTKMFEELKSRLDTLAQEVALLKEQQALQTVCLKGTKVHMKCFLAFTQTKTFHEASEDCISRGGTLSTPQTGSENDALYEYLRQSVGNEAEIWLGLNGSALTDTWVDMTGARIAYKNWETEITAQPDGGFGYFGENCAVLSGAANGKWFDKRCRDQLPYICQFGIV | 2 |
| 105-08-1D1 ATRIMER complex (designed binder, not shown: small tags and cut ends) EPPTQKPKKIVNAKKDVVNTKMFEELKSRLDTLAQEVALLKEQQALQTVCLKGTKVHMKCFLAFTQTKTFHEASEDCISRGGTLSTPQTGSENDALYEYLRQSVGNEAEIWLGLNGSALTDTWVDMTGARIAYKNWETEITAQPDGGWGYFGENCAVLSGAANGKWFDKRCRDQLPYICQFGIV | 3.6 |
| 105-08-1C9 ATRIMER complex (designed binder) EPPTQKPKKIVNAKKDVVNTKMFEELKSRLDTLAQEVALLKEQQALQTVCLKGTKVHMKCFLAFTQTKTFHEASEDCISRGGTLSTPQTGSENDALYEYLRQSVGNEAEIWLGLNGSTLTDTWVDMTGARIAYKNWETEITAQPDGGFGYFGENCAVLSGAANGKWFDKRCRDQLPYICQFGIV | 7.4 |
| 105-08-1C10 ATRIMER complex (designed binder) EPPTQKPKKIVNAKKDVVNTKMFEELKSRLDTLAQEVALLKEQQALQTVCLKGTKVHMKCFLAFTQTKTFHEASEDCISRGGTLSTPQTGSENDALYEYLRQSVGNEAEIWLGLNGSSVTNTWVDMTGARIAYKNWETEITAQPDGGWGYFGENCAVLSGAANGKWFDKRCRDQLPYICQFGIV | 5 |
| 105-08-1D12 ATRIMER complex (designed binder, not shown: C-terminal tag: His/Myc (pANA4) or HA-StrepII (pANA10)) EPPTQKPKKIVNAKKDVVNTKMFEELKSRLDTLAQEVALLKEQQALQTVCLKGTKVHMKCFLAFTQTKTFHEASEDCISRGGTLSTPQTGSENDALYEYLRQSVGNEAEIWLGLNGSVLTDTWVDMTGARIAYKNWETEITAQPDGGFGYFGENCAVLSGAANGKWFDKRCRDQLPYICQFGIV | 4.6 |
| 105-08-1D10 ATRIMER complex (designed binder) EPPTQKPKKIVNAKKDVVNTKMFEELKSRLDTLAQEVALLKEQQALQTVCLKGTKVHMKCFLAFTQTKTFHEASEDCISRGGTLSTPQTGSENDALYEYLRQSVGNEAEIWLGLNGSARTGTWVDMTGARIAYKNWETEITAQPDGGWGYFGENCAVLSGAANGKWFDKRCRDQLPYICQFGIV | 5.5 |
| 105-08-1C3 ATRIMER complex (designed binder) EPPTQKPKKIVNAKKDVVNTKMFEELKSRLDTLAQEVALLKEQQALQTVCLKGTKVHMKCFLAFTQTKTFHEASEDCISRGGTLSTPQTGSENDALYEYLRQSVGNEAEIWLGLNGSQLTDTWVDMTGARIAYKNWETEITAQPDGGWGYFGENCAVLSGAANGKWFDKRCRDQLPYICQFGIV | 3.6 |
| 105-08-1C2 ATRIMER complex (designed binder) EPPTQKPKKIVNAKKDVVNTKMFEELKSRLDTLAQEVALLKEQQALQTVCLKGTKVHMKCFLAFTQTKTFHEASEDCISRGGTLSTPQTGSENDALYEYLRQSVGNEAEIWLGLNGSRATDTWVDMTGARIAYKNWETEITAQPDGGFGYFGENCAVLSGAANGKWFDKRCRDQLPYICQFGIV | 4.1 |
| 105-08-1B7 ATRIMER complex (designed binder) EPPTQKPKKIVNAKKDVVNTKMFEELKSRLDTLAQEVALLKEQQALQTVCLKGTKVHMKCFLAFTQTKTFHEASEDCISRGGTLSTPQTGSENDALYEYLRQSVGNEAEIWLGLNGSPRTDTWVDMTGARIAYKNWETEITAQPDGGFGYFGENCAVLSGAANGKWFDKRCRDQLPYICQFGIV | 4.1 |

Other lines, results leading:

| Ratio IC50 to 056-53.H4E IC50 | Binder |
| --- | --- |
| 2.4 | 105-08-1G9 ATRIMER complex (designed binder) EPPTQKPKKIVNAKKDVVNTKMFEELKSRLDTLAQEVALLKEQQALQTVCLKGTKVHMKCFLAFTQTKTFHEASEDCISRGGTLSTPQTGSENDALYEYLRQSVGNEAEIWLGLNGSPKTDTWVDMTGARIAYKNWETEITAQPDGGFGYFGENCAVLSGAANGKWFDKRCRDQLPYICQFGIV |
| 13.2 | 105-08-1G12 ATRIMER complex (designed binder, Homotrimer (ATRIMER complex) of the one chain given.) EPPTQKPKKIVNAKKDVVNTKMFEELKSRLDTLAQEVALLKEQQALQTVCLKGTKVHMKCFLAFTQTKTFHEASEDCISRGGTLSTPQTGSENDALYEYLRQSVGNEAEIWLGLNGSLRTGTWVDMTGARIAYKNWETEITAQPDGGWGYFGENCAVLSGAANGKWFDKRCRDQLPYICQFGIV |
| 3.4 | 105-08-2B3 ATRIMER complex (designed binder, not shown: small tags and cut ends) EPPTQKPKKIVNAKKDVVNTKMFEELKSRLDTLAQEVALLKEQQALQTVCLKGTKVHMKCFLAFTQTKTFHEASEDCISRGGTLSTPQTGSENDALYEYLRQSVGNEAEIWLGLNGSAITNTWVDMTGARIAYKNWETEITAQPDGGWGYFGENCAVLSGAANGKWFDKRCRDQLPYICQFGIV |
| 3.6 | 105-08-2C1 ATRIMER complex (designed binder, not shown: small tags and cut ends) EPPTQKPKKIVNAKKDVVNTKMFEELKSRLDTLAQEVALLKEQQALQTVCLKGTKVHMKCFLAFTQTKTFHEASEDCISRGGTLSTPQTGSENDALYEYLRQSVGNEAEIWLGLNGSSLTDTWVDMTGARIAYKNWETEITAQPDGGWGYFGENCAVLSGAANGKWFDKRCRDQLPYICQFGIV |
| 3.6 | 105-08-2C6 ATRIMER complex (designed binder) EPPTQKPKKIVNAKKDVVNTKMFEELKSRLDTLAQEVALLKEQQALQTVCLKGTKVHMKCFLAFTQTKTFHEASEDCISRGGTLSTPQTGSENDALYEYLRQSVGNEAEIWLGLNGSQRTDTWVDMTGARIAYKNWETEITAQPDGGWGYFGENCAVLSGAANGKWFDKRCRDQLPYICQFGIV |
| 5.5 | 105-08-1G2 ATRIMER complex (designed binder) EPPTQKPKKIVNAKKDVVNTKMFEELKSRLDTLAQEVALLKEQQALQTVCLKGTKVHMKCFLAFTQTKTFHEASEDCISRGGTLSTPQTGSENDALYEYLRQSVGNEAEIWLGLNGSSKTNTWVDMTGARIAYKNWETEITAQPDGGWGYFGENCAVLSGAANGKWFDKRCRDQLPYICQFGIV |
| 2.9 | 105-08-2C4 ATRIMER complex (designed binder, ATRIMER complex: homotrimer of three copies of this chain, joined by the tetranectin coiled coil, not shown: C-terminal tag: Myc/His (pANA4) or HA-StrepII (pANA10)) EPPTQKPKKIVNAKKDVVNTKMFEELKSRLDTLAQEVALLKEQQALQTVCLKGTKVHMKCFLAFTQTKTFHEASEDCISRGGTLSTPQTGSENDALYEYLRQSVGNEAEIWLGLNGSLLTNTWVDMTGARIAYKNWETEITAQPDGGFGYFGENCAVLSGAANGKWFDKRCRDQLPYICQFGIV |
| 5 | 105-08-2A1 ATRIMER complex (designed binder) EPPTQKPKKIVNAKKDVVNTKMFEELKSRLDTLAQEVALLKEQQALQTVCLKGTKVHMKCFLAFTQTKTFHEASEDCISRGGTLSTPQTGSENDALYEYLRQSVGNEAEIWLGLNGSMRTDTWVDMTGARIAYKNWETEITAQPDGGWGYFGENCAVLSGAANGKWFDKRCRDQLPYICQFGIV |
